Assay results from the supplement of paper PMC9732359.
± gives the uncertainty stated by the source.

Test: protein stability index of a GFP-peptide fusion (yeast GPS) (PSI 1-4); higher = more stable; sorted into four equal gates, so the index is relative within each strain
Procedure, shortened: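 Sequencing reads from sorted gates were used to score each peptide. The library consisted of tiled 17-residue yeast protein peptides fused downstream of GFP on a Cherry-expressing plasmid, pooled and carried in yeast. Mid-log cultures in leucine-free medium were split into four equal gates by GFP/Cherry ratio, and each gate's plasmids were PCR-amplified and Illumina-sequenced. The protein stability index adds up, over all gates, the read frequency multiplied by the gate number.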

Row | Sequence | protein stability index (doa10∆) | protein stability index (pdr5∆) | protein stability index (san1∆) | protein stability index (ubr1∆)
1 | VNEENDSYIALYEKDIV [RET1] | 2.6 ± 0.064 | 2.56 ± 0.076 | 2.69 ± 0.061 | 2.68 ± 0.07
2 | VNESRNSDDIIDVDMDA [SRB5] | 2.27 ± 0.065 | 2.2 ± 0.053 | 2.57 ± 0.078 | 2.59 ± 0.052
3 | VNFTEIGGLIPQWKRHL [YCS4] | 3.46 ± 0.25 | – | – | –
4 | VNGSTTAGVGSTPNFGG [SIN4] | 3.58 ± 0.079 | 3.33 ± 0.095 | 3.4 ± 0.078 | 3.25 ± 0.077
5 | VNGVPLRRVNARYVIAT [RPL6A] | 1.61 ± 0.095 | 1.9 ± 0.066 | 1.37 ± 0.11 | 1.23 ± 0.05
6 | VNLDNTAVGKAAVVKTS [RPT5] | 3.16 ± 0.064 | 3.12 ± 0.057 | 3.28 ± 0.041 | 3.05 ± 0.039
7 | VNLENPIPIAVLDSYTP [FAS1] | 1.42 ± 0.046 | 1.7 ± 0.036 | 1.69 ± 0.071 | 1.42 ± 0.027
8 | VNLSQEALQYDPQPFLK [SNU114] | 2.99 ± 0.056 | 2.84 ± 0.061 | 2.97 ± 0.044 | 3 ± 0.046
9 | VNQDSTYKYFEVILVDP [RPL15A] | 3.21 ± 0.068 | 3.43 ± 0.082 | 3.12 ± 0.048 | 3.19 ± 0.057
10 | VPISTSQTNNSFLSGVK [SIR4] | 2.56 ± 0.054 | 2.73 ± 0.07 | 2.63 ± 0.067 | 2.95 ± 0.057
11 | VPKSIAKTLTYPEVVTP [RPO21] | 2.51 ± 0.05 | 2.76 ± 0.044 | 2.39 ± 0.039 | 2.62 ± 0.047
12 | VPNILSLDMNSMNKELI [NUT1] | 2.14 ± 0.075 | 1.96 ± 0.084 | 1.46 ± 0.27 | 1.91 ± 0.075
13 | VPVTKLGRLVKAGKITT [RPS2] | 3.13 ± 0.091 | 3 ± 0.15 | 3.03 ± 0.11 | 3.45 ± 0.078
14 | VQARDNSQVFGVARIYA [RPS14B] | 2.39 ± 0.074 | 2.3 ± 0.054 | 2.78 ± 0.047 | 2.91 ± 0.059
15 | VQFGLNEETFTVPELEI [ARP9] | 3.17 ± 0.076 | 3.02 ± 0.096 | 2.78 ± 0.11 | 3.19 ± 0.082
16 | VQGELKPTVILKLLKEN [FAS1] | 2.36 ± 0.17 | 2.53 ± 0.14 | 2.75 ± 0.19 | 2.99 ± 0.28
17 | VQIGAEIILDFLQDKVQ [CSI1] | 3.03 ± 0.085 | 3.07 ± 0.066 | 2.88 ± 0.061 | 3.06 ± 0.047
18 | VQMAKILRKELSEEKEV [MCD1] | 3.37 ± 0.21 | 3.17 ± 0.27 | 2.9 ± 0.12 | –
19 | VQPPLDKFPYKKLELPK [SWP82] | 2.79 ± 0.074 | 2.11 ± 0.055 | 2.73 ± 0.061 | 2.93 ± 0.055
20 | VRATFRNNLPAKTFGAS [RPL33A] | 2.85 ± 0.097 | 3.05 ± 0.16 | 3.2 ± 0.11 | 3.31 ± 0.098
21 | VRAVSITSFGFGQKGGQ [FAS2] | 2.92 ± 0.19 | 2.96 ± 0.23 | 1.74 ± 0.21 | 3.31 ± 0.27
22 | VRCKDCGHRILLKARTK [RPC10] | 2.55 ± 0.12 | 2.64 ± 0.11 | 2.56 ± 0.1 | 2.87 ± 0.072
23 | VRDKLDEYQAAVEQRKK [DPB4] | 3.42 ± 0.097 | 3.37 ± 0.066 | 3.31 ± 0.055 | 3.33 ± 0.073
24 | VRDPWSIDFRTYRCSIK [SRB2] | 2.35 ± 0.11 | 2.41 ± 0.12 | 1.47 ± 0.13 | 2.31 ± 0.083
25 | VRIIKHTLDIINVLTDQ [RPS5] | 2.11 ± 0.053 | 2.46 ± 0.059 | 2.62 ± 0.053 | 2.4 ± 0.044
26 | VRIMKAKRNLPHTTLVN [CDC53] | 1.9 ± 0.093 | 2.23 ± 0.07 | 1.53 ± 0.16 | 1.77 ± 0.072
27 | VRKYDLNICRQCFREKA [RPS29B] | 2.12 ± 0.22 | 2.67 ± 0.092 | 2.02 ± 0.19 | 2.49 ± 0.11

Row | Sequence | protein stability index (doa10∆) | protein stability index (pdr5∆) | protein stability index (san1∆) | protein stability index (ubr1∆)
28 | VRRRFARGMTSKPAGFM [RPS15] | 2.9 ± 0.071 | 2.89 ± 0.077 | 2.94 ± 0.1 | 3.07 ± 0.075
29 | VRSGVSKSAPSKKISNT [YAR002W/NUP60] | 3.28 ± 0.085 | 3.25 ± 0.088 | 3.26 ± 0.049 | 3.38 ± 0.056
30 | VRTDTTYPAGFMDVITL [RPS4A] | 2.37 ± 0.11 | 2.57 ± 0.1 | 2.92 ± 0.1 | 2.78 ± 0.098
31 | VRVRTTKIPQIGDKFAS [RPB2] | 2.55 ± 0.068 | 2.68 ± 0.072 | 3.13 ± 0.064 | 2.66 ± 0.035
32 | VSEKAFLLTQSKVSIEQ [RPN7] | 3.21 ± 0.18 | – | – | 2.8 ± 0.14
33 | VSIRQNQYKLVFYQVTP [RPL22B] | 1.95 ± 0.087 | 1.69 ± 0.051 | 2.15 ± 0.06 | 1.88 ± 0.064
34 | VSKADILLSHHRASPAD [POP5] | 2.34 ± 0.15 | 3.26 ± 0.16 | 3.18 ± 0.054 | 2.91 ± 0.1
35 | VSKPAFSFGAKANEKKE [YJL041W/NSP1] | 3.07 ± 0.15 | 2.78 ± 0.24 | 2.95 ± 0.11 | 2.94 ± 0.16
36 | VSLLKKNWQNVGSLVVK [RPL1A] | 1.15 ± 0.049 | 1.39 ± 0.056 | 1.36 ± 0.12 | 1.32 ± 0.053
37 | VSNISCLTGTVAARMFH [ECM29] | 1.66 ± 0.042 | 1.59 ± 0.039 | 2.28 ± 0.087 | 2.19 ± 0.045
38 | VSPTNVMGTPLTNMMSP [PGD1] | 2.77 ± 0.1 | – | 2.92 ± 0.091 | 3.26 ± 0.093
39 | VSSAKFSGKYLKYLTKK [RPL22B] | 2.82 ± 0.25 | 2.52 ± 0.2 | 2.59 ± 0.12 | 2.66 ± 0.18
40 | VSSPESEKNKRQSKSSG [ITC1] | 3.03 ± 0.059 | 3.17 ± 0.052 | 2.98 ± 0.045 | 3.14 ± 0.038
41 | VSSSSRHHRKTEKEEDA [ISW2] | 2.66 ± 0.064 | 2.81 ± 0.057 | 2.05 ± 0.058 | 2.86 ± 0.054
42 | VSVIAPESQGQHEQQKQ [YMR153W/NUP53] | 2.92 ± 0.085 | 3.15 ± 0.097 | 2.91 ± 0.068 | 2.94 ± 0.068
43 | VSVPVSGQKTNRQVMHK [SIR3] | 2.58 ± 0.13 | 3.27 ± 0.14 | 3.05 ± 0.13 | 2.86 ± 0.17
44 | VSYKDYSIFLENENILI [SMC1] | 2.62 ± 0.13 | 2.81 ± 0.1 | – | 2.59 ± 0.086
45 | VTDDDRLWLKKVMEEEE [POP8] | 1.43 ± 0.066 | 1.89 ± 0.07 | 1.57 ± 0.089 | 2.07 ± 0.07
46 | VTEDGSIVTVVSSAKFS [RPL22B] | 2.79 ± 0.1 | 3 ± 0.12 | 2.99 ± 0.1 | 2.87 ± 0.087
47 | VTFSFFNPQDTEENIKG [RRP45] | 2.15 ± 0.081 | 2.55 ± 0.08 | 3.08 ± 0.08 | 3.19 ± 0.076
48 | VTGGKKALVLFVPVPAL [RPS7B] | 1.58 ± 0.061 | 2.03 ± 0.1 | 2.14 ± 0.11 | 1.52 ± 0.054
49 | VTKLNVLVDEIKSQYYS [YIL149C/MLP2] | 2.36 ± 0.066 | 2.33 ± 0.052 | 2.35 ± 0.074 | 2.28 ± 0.037
50 | VTLYWNNAKLLTFMTCN [ESC2] | 1.89 ± 0.041 | 2.09 ± 0.041 | 2.34 ± 0.045 | 2.57 ± 0.029
51 | VTNSLSNEEKEKIKMKL [GAL11] | – | – | 3.1 ± 0.13 | –
52 | VTNSMRQTLAPYAVLSQ [YJR042W/NUP85] | 2.33 ± 0.065 | 2.83 ± 0.054 | 2.53 ± 0.051 | 2.62 ± 0.048
53 | VTRFTTWNGSPFDNSTE [YJL039C/NUP192] | 2.44 ± 0.079 | 2.17 ± 0.052 | 2.3 ± 0.099 | 2.41 ± 0.067
54 | VTRKQEDARRNPNPSSQ [RPC37] | 3.33 ± 0.087 | 3.44 ± 0.094 | 3.19 ± 0.081 | 3.54 ± 0.061
